Molecular target: HDAC1-flag (Homo sapiens (Human), UniProt Q13547 1-482)
Experiment: cell-based or functional assay

Sequence of HDAC1-flag (Q13547 whole entry, form in doubt): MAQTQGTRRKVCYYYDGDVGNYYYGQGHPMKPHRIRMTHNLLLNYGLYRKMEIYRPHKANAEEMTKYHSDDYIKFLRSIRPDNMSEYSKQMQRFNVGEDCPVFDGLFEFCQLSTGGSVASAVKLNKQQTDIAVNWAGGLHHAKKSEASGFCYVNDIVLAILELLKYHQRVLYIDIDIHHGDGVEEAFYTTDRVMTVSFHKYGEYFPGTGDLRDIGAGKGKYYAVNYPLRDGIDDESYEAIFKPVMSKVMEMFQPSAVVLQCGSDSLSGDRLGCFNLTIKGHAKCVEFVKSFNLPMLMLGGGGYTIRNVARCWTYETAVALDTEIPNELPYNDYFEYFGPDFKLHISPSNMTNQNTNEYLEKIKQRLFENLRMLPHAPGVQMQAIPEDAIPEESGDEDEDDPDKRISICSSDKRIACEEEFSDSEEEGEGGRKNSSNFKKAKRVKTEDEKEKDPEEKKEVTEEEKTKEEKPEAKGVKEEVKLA

HDAC1 activity: release of acetic acid from a [3H]acetyl-labeled Histone H4 peptide by immunoprecipitated HDAC1: ~4 fold
B1: V5-APPL (full length APPL) (other, not shown: small tags and cut ends)
chain: MPGIDKLPIEETLEDSPQTRSLLGVFEEDATAISNYMNQLYQAMHRIYDAQNELSAATHLTSKLLKEYEKQRFPLGGDDEVMSSTLQQFSKVIDELSSCHAVLSTQLADAMMFPITQFKERDLKEILTLKEVFQIASNDHDAAINRYSRLSKKRENDKVKYEVTEDVYTSRKKQHQTMMHYFCALNTLQYKKKIALLEPLLGYMQAQISFFKMGSENLNEQLEEFLANIGTSVQNVRREMDSDIETMQQTIEDLEVASDPLYVPDPDPTKFPVNRNLTRKAGYLNARNKTGLVSSTWDRQFYFTQGGNLMSQARGDVAGGLAMDIDNCSVMAVDCEDRRYCFQITSFDGKKSSILQAESKKDHEEWICTINNISKQIYLSENPEETAARVNQSALEAVTPSPSFQQRHESLRPAAGQSRPPTARTSSSGSLGSESTNLAALSLDSLVAPDTPIQFDIISPVCEDQPGQAKAFGQGGRRTNPFGESGGSTKSETEDSILHQLFIVRFLGSMEVKSDDHPDVVYETMRQILAARAIHNIFRMTESHLLVTCDCLKLIDPQTQVTRLTFPLPCVVLYATHQENKRLFGFVLRTSSGRSESNLSSVCYIFESNNEGEKICDSVGLAKQIALHAELDRRASEKQKEIERVKEKQQKELNKQKQIEKDLEEQSRLIAASSRPNQASSEGQFVVLSSSQSEESDLGEGGKKRESEA
